Laboratory results: patent US20250042943A1, “FAP DETECTION” (THE UNIVERSITY COURT OF THE UNIVERSITY OF EDINBURGH, priority 2021, published 2025)
“Also recorded” adds a separate entry of the source. Where a SMILES comes first, the peptide text is derived from it. [ ]: non-standard residue; d: D form. The star is where a group is joined. 5FAM = O=C1OC2(c3ccc(O)cc3Oc3cc(O)ccc32)c2ccc(C(=O)*)cc21; X1 = CN(C)c1ccc(N=Nc2ccccc2C(=O)*)cc1; AEEA = NCCOCCOCC(=O)O

What was measured:
[1] = Toxicity in rats, intravenous (bolus) dosing for 7 days; format: in vivo; conditions: intravenous (bolus) injection of 0.1 mg for 7 days
Procedure: The potential toxicity of the FAP probe was assessed by dosing rats with an intravenous (bolus) injection of 0.1 mg of the FAP3 probe for 7 days.

[2] = system: NSCLC patient tissue samples; test: Fluorescence intensity and lifetime imaging (FLIM, KronoScan) of ex vivo NSCLC tissue; format: cell-based, human; conditions: VBP (1:1000) added with FAP3; listed as VBP
Procedure: For imaging solutions, varying concentrations of rhFAP were prepared in blackened eppendorfs and FAP3 to a final concentration of 5 μm added and imaged as below. For biological specimens, NSCLC patient tissue samples from surgical resection were used fresh or snap frozen and stored at −80 until required. Small fragments (approx. 4 mm^3) incubated at 37° C. in a 96 well plate in phenyl-red free DMEM (Gibco) containing 10% FCS, 1% Penicillin-streptomycin and 1% L-Glutamine. For the inhibitor fragments VBP (1:1000) was added. Samples were then imaged using a clinically tractable novel fluorescence lifetime imaging system, KronoScan, with an imaging fibre providing a 400×400 um field of view. […] This spectrometer contains a 512 channel single photon avalanche diode (SPAD) sensor, allowing for the rapid collection of time resolved spectral fluorescence lifetime data. Fluorescence intensity and lifetime images were collected at 160×160 pixels over a 498-570 nm spectral range with an exposure time of 13 μs per pixel. […]
For each condition the tumour samples were imaged using a fibre placed at the tip of the tissue (baseline), and then again at 10 minute intervals following the additions of equimolar concentrations of probe+/− Inhibitor. […] Each condition and time-point data for both fluorescence intensity and lifetime were collected. […]

[3] = system: cancer associated fibroblasts (CAFs) from NSCLC patient samples; test: Assessment on cancer associated fibroblasts (CAFs); format: cell-based, human; conditions: co-incubated with FAP3
Procedure: CAFs were isolated from NSCLC patient samples as previously described methods known in the art. Briefly, tissue samples were minced with forceps and incubated for an hour in prewarmed RPMI media (Gibco) containing collagenase IV [2 mg/ml](Sigma) and DNase [0.2 mg/ml](Sigma). Samples were spun at 350 g for 5 minutes and red blood cells were lysed from samples using RBC lysis buffer (BioLegend) in 10 mls for 10 minutes. Following a further spin at 350 g for 5 minutes, cells were seeded in culture flasks in DMEM containing 10% FCS, 1% Penicillin-Streptomycin, 1% L-Glutamine and 10% Insulin Transferrin Selenium (ITS). 24 hours after seeding, non-adherent cells were washed from the flasks. Cells were maintained by standard cell culture methods and by passage 2, the predominant cell type was CAFs, assessed by flow cytometry markers and morphology. CAFs between passage 4-9 were used to assess FAP probes and confirmed to be FAP^hi by flow cytometry.
CAFs were seeded into 96 well plates in a 100 μl media (complete DMEM as described above) at a density of 1×10^5 cells/ml to form a confluent monolayer within 24 hours. Wells containing cells had media removed and then were washed before buffer (DPBS)+/− inhibitors were added with the imaging probes. Immediately after adding imaging probes, the plate was transferred to the prewarmed spectrophotometer as above and read at 480/530 nm for one hour.

[4] = biological target: rhDPPIV (Homo sapiens, UniProt P27487); test: Probe cleavage by recombinant human DPPIV (exopeptidase activity); format: biochemical; conditions: probe 5 μM, enzyme 0.1 μg/ml, read 480/530 nm
[5] = biological target: T1, rhPREP (Homo sapiens, UniProt P48147); test: Probe cleavage by recombinant human PREP; format: biochemical; conditions: probe 5 μM, enzyme 0.1 μg/ml, read 480/530 nm
T1 sequence (P48147 1-710): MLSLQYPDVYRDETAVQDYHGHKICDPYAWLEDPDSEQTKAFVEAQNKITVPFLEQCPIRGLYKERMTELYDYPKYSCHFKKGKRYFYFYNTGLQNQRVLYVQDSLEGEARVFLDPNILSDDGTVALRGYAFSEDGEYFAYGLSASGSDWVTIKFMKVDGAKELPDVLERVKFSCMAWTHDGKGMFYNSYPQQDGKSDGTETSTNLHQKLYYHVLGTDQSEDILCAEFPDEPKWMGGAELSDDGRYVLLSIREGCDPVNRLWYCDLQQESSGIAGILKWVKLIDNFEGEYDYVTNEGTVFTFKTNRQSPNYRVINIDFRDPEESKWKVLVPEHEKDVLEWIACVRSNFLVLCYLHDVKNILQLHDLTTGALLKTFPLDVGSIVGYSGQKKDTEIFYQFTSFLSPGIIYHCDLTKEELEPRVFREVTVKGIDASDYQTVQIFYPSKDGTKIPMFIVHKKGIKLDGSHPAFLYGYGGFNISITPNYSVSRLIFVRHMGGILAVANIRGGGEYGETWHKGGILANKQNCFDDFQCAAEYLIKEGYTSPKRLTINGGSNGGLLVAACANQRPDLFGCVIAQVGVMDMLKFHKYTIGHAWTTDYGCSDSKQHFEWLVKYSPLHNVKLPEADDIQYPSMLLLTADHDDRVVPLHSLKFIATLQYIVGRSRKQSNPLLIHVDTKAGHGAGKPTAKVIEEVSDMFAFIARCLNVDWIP

[6] = biological target: T2, rhFAP (Homo sapiens, UniProt Q12884); test: Probe cleavage by recombinant human FAP (fluorescence read); format: biochemical; conditions: for cleavage by rhFAP: probe 5 μM, enzyme 0.1 μg/ml, read 480/530 nm; for signal (relative fluorescence intensity) with rhFAP: comparison between probe iterations; for FAP specificity (over PREP): from recombinant enzyme assessment
T2 sequence (Q12884 1-760): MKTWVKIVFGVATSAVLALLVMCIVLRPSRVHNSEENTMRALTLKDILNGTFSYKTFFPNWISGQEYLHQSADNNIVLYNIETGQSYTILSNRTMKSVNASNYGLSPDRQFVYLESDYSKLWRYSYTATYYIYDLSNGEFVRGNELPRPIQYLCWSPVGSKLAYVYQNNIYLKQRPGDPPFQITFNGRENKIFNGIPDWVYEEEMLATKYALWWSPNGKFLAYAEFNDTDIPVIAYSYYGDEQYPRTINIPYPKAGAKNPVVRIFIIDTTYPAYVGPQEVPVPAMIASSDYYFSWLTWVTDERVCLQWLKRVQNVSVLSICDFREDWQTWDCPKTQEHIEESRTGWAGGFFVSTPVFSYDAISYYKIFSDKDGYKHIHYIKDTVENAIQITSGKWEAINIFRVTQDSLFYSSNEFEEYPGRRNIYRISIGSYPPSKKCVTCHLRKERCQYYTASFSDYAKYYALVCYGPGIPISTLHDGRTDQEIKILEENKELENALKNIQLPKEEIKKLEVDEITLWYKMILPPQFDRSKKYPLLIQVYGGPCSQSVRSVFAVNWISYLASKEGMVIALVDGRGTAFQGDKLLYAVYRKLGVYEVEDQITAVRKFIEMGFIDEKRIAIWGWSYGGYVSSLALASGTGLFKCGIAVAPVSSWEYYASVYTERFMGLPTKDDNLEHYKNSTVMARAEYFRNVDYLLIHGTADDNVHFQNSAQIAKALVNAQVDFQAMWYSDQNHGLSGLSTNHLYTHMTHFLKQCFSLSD

[7] = system: FAP3

rhDPPIV, sequence (P27487 whole entry): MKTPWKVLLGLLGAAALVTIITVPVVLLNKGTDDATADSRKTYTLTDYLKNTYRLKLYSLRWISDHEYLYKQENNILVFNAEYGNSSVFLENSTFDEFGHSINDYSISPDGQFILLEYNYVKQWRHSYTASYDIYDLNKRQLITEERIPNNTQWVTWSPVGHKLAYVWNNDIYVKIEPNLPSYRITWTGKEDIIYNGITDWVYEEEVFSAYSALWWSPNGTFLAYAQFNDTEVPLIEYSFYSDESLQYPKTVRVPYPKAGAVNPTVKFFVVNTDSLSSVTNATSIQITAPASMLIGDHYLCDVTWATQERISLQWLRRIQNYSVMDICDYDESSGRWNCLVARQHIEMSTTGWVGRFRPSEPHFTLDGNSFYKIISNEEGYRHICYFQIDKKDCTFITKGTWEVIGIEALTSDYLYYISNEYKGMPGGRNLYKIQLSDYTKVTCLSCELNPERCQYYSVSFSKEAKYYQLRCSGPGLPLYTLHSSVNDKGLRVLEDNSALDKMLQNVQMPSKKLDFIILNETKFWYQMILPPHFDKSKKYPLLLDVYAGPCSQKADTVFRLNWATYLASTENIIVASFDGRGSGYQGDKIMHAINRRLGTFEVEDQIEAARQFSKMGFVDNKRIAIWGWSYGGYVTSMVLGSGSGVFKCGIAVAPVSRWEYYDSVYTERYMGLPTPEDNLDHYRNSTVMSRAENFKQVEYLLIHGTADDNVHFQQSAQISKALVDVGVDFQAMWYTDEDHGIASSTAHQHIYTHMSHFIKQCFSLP

cleavage by rhFAP [6]	signal (relative fluorescence intensity) with rhFAP [6]	FAP specificity (over PREP) [6]	Compound	cleavage by rhPREP [5]	other results
–	–	–	CC(C)[C@H](NC(=O)[C@@H](N)CCCCNC(=O)c1ccccc1N=Nc1ccc(N(C)C)cc1)C(=O)N[C@H](CO)C(=O)N1CCC[C@H]1C(=O)N[C@@H](CC(N)=O)C(=O)N[C@@H](CCC(N)=O)C(=O)NCC(=O)N[C@@H](CCCCNC(=O)c1ccc2c(c1)C(=O)OC21c2ccc(O)cc2Oc2cc(O)ccc21)C(=O)NCCOCCOCC(=O)N[C@H](CCCCN)C(=O)NCCOCCOCC(=O)N[C@H](CCCCN)C(=O)NCCOCCOCC(=O)N[C@H](CCCCN)C(N)=O [FAP3, Lys(MethylRed)-Val-(D)Ser-Pro-Asn-Gln-Gly-Lys(5-FAM)-[Peg2-(D)Lys]3-NH2] (H-K(X1)V[dS]PNQGK(5FAM)[AEEA][dK][AEEA][dK][AEEA][dK]-NH2)	–	clinical signs [1]: no clinical signs; deaths [1]: no deaths; differences in body weights, body weight gains, food consumption, haematology, coagulation, clinical chemistry, organ weights and macroscopic and microscopic examinations ([1]; compared to a control group): no differences
–	–	–	CC(C)[C@H](N)C(=O)N1CCC[C@H]1B(O)O [Val-boroPro]	–	inhibition of FAP3 intensity and lifetime change in NSCLC tissue [2]: inhibition; also recorded: abrogated; inhibition of FAP3 signal in CAFs [3]: inhibition of signal; inhibition of FAP3 signal in CAFs ([3]; listed as VBP): signal was abrogated
–	–	–	FAP on cancer associated fibroblasts (CAFs) from NSCLC patient samples	–	cleavage of FRET probe on a CAF monolayer (fluorescence 480/530 nm, one hour) [7]: FAP3 was cleaved by FAP^+CAFs, with inhibition of signal when co-incubated with Val-boroPro
–	reduced signal	FAP specificity over PREP	Lys(MethylRed)-(D)Ala-Pro-Ser-Lys(5-FAM)-[Peg2-(D)Lys]3-NH2 [FAP2BD-Ala]	–	–
highest rate of cleavage	–	demonstrates FAP specificity	Lys(MethylRed)-(D)Ser-Pro-Ser-Lys(5-FAM)-[Peg2-(D)Lys]3-NH2 [FAP2CD-Ser]	without PREP cleavage	signal (relative fluorescence intensity) with rhFAP ([6]; listed as D-Ser): reduced signal; FAP specificity (over PREP) ([6]; listed as D-Ser): FAP specificity over PREP
–	reduced signal	FAP specificity over PREP	Lys(MethylRed)-(D)Thr-Pro-Ser-Lys(5-FAM)-[Peg2-(D)Lys]3-NH2 [FAP2DD-Thr]	–	–
–	reduced signal	FAP specificity over PREP	Lys(MethylRed)-(β)Ala-Pro-Ser-Lys(5-FAM)-[Peg2-(D)Lys]3-NH2 [FAP2Fβ-Ala]	–	–
FAP activity was absent	–	–	Lys(MethylRed)-Ala-Pro-Ser-Lys(5-FAM)-[Peg2-(D)Lys]3-NH2 [FAP2AAla]	is cleaved; also recorded: demonstrated cleavage by PREP	–
loss of FAP activity	–	–	Lys(MethylRed)-D-Tyr-Pro-Ser-Lys(5-FAM)-[Peg2-(D)Lys]3-NH2 [FAP2ED-Tyr]	–	–
–	–	–	MMP-13 (recombinant enzyme)	–	cleavage of FRET probe by recombinant enzyme (fluorescence) [7]: demonstrating no activity

Compound	cleavage by rhFAP [6]	signal (relative fluorescence intensity) with rhFAP [6]	FAP specificity (over PREP) [6]	cleavage by rhPREP [5]	other results
FAM-Peg2-Gly-Pro-Gly-(D)Pro-(D)Asn-Gln-Lys(MethylRed)-NH2 [FAP1DLi-FAM]	lower rate of cleavage; also recorded: FAP activity was significantly reduced	–	–	cleaves; also recorded: partial reduction in activity	cleavage by rhDPPIV (exopeptidase activity) [4]: Neither FAP1Li-FAM or FAP1 DLi-FAM are cleaved; cleavage by rhPREP ([5]; listed as FAP1 DLi-FAM): still demonstrated PREP cleavage
FAM-Peg2-Gly-Pro-Gly-Pro-Asn-Gln-Lys(MethylRed)-NH2 [FAP1Li-FAM]	cleaved rapidly; also recorded: endopeptidase activity	signal intensity of FAP1 is higher	–	cleaved more rapidly; also recorded: endopeptidase activity	cleavage by rhDPPIV (exopeptidase activity) [4]: Neither FAP1Li-FAM or FAP1 DLi-FAM are cleaved; also recorded: did not cleave
